Reference: patent US20180179283A1

What was measured:
[1] = target: HLA-A2/WT1 126-134 peptide complex on cells (human); experiment: FACS, T2 cells loaded with 10^-4M WT1 peptide
Unloaded T2 (human) = experiment: FACS, unloaded T2 cells, anti-human PE
[2] = target: HLA-A2 positive, antigen negative cells; experiment: FACS, 501A cells (melanoma, WT1 mRNA -)
[3] = target: HLA-A2/Tyrosinase 369-377 peptide complex on cells (human); experiment: FACS, T2 cells loaded with TyrD [..], anti-human PE
[4] = target: HLA-A2 positive, antigen negative cells; experiment: FACS, SKMEL-5 cells (melanoma, WT1 mRNA -)
[5] = target: HLA-A2/WT1-S6 peptide on T2 cells (human); experiment: FACS, T2 cells loaded with WT1-S6 [..], anti-human PE
[6] = target: HLA-A2/WT1-S7 peptide on T2 cells (human); experiment: FACS, T2 cells loaded with WT1-S7 [..], anti-human PE
[7] = target: HLA-A2 positive, antigen negative cells; experiment: FACS, JVM-2 cells (lymphoblast, WT1 mRNA -)
[8] = target: HLA-A2/WT1-S10 peptide on T2 cells (human); experiment: FACS, T2 cells loaded with WT1-S10 [..], anti-human PE
[9] = target: HLA-A2/WT1 126-134 peptide complex on cells (human); experiment: FACS, BV173 cells (B cell precursor leukemia, WT1 mRNA +)
[10] = target: HLA-A2/WT1 126-134 peptide complex on cells (human); experiment: FACS, SET-2 cells (essential thrombocythemia, WT1 mRNA +)
[11] = target: HLA-A2 positive, antigen negative cells; experiment: FACS, IM-9 cells (multiple myeloma, WT1 mRNA -)
[12] = target: HLA-A2 positive, antigen negative cells; experiment: FACS, U266 cells (multiple myeloma, WT1 mRNA -)
[13] = target: HLA-A2/PAP 112-120 peptide complex on cells (human); experiment: FACS, T2 cells loaded with PAP112, anti-human PE
[14] = target: HLA-A2/WT1 126-134 peptide complex on cells (human); experiment: FACS, T2 cells loaded with WT1 peptide 1x10e-4M, anti-human PE
[15] = target: HLA-A2/WT1 126-134 peptide complex on cells (human); experiment: FACS, T2 cells loaded with WT1 peptide 1x10e-5M, anti-human PE
[16] = target: HLA-A2/WT1 126-134 peptide complex on cells (human); experiment: FACS, T2 cells loaded with WT1 1x10e-4M in DMSO, anti-human PE
[17] = target: HLA-A2/MAGE-A4 230-239 peptide complex on cells (human); experiment: FACS, T2 cells loaded with MAGE-A4 [..], anti-human PE
[18] = target: HLA-A2/MAGE-A9 223-231 peptide complex on cells (human); experiment: FACS, T2 cells loaded with MAGE-A9 [..], anti-human PE
[19] = target: HLA-A2/WT1-S13 peptide on T2 cells (human); experiment: FACS, T2 cells loaded with WT1-S13 [..], anti-human PE
[20] = target: HLA-A2/WT1-S16 peptide on T2 cells (human); experiment: FACS, T2 cells loaded with WT1-S16 [..], anti-human PE
[21] = target: HLA-A2/WT1-S22 peptide on T2 cells (human); experiment: FACS, T2 cells loaded with WT1-S22 [..], anti-human PE
[22] = target: HLA-A2/WT1-S11 peptide on T2 cells (human); experiment: FACS, T2 cells loaded with WT1-S11 [..] (heteroclitic pep.), anti-human PE
[23] = target: HLA-A2 positive, antigen negative cells; experiment: FACS, A498 cells (printed: non-small cell lung adenocarcinoma, WT1 mRNA -)

- MFI [1]: 18
- MFI (Unloaded T2 (human)): 1
- MFI [2]: 10.7
- MFI [3]: 1
- MFI [4]: 4.3
- MFI [5]: 5
- MFI [6]: 3.1
- MFI [7]: 1
- MFI [8]: 1.4
- MFI [9]: 8.1
- MFI [10]: 26.3
- MFI [11]: 1.2
- MFI [12]: 1.9
- MFI [13]: 1.1
- MFI [14]: 17.9
- MFI [15]: 1.6
- MFI [16]: 17.9
- MFI [17]: 1.1
- MFI [18]: 1
- MFI [19]: 1.1
- MFI [20]: 1.1
- MFI [21]: 1.1
- MFI [22]: 1.1
- MFI [23]: 5.2
Substance: ESK1 TCR-like antibody
